From US20110243928A1 (published 2011)
Where a chain is given by its changes, count along the chain named. One block for each binder: values may come before it.

Key:
[1] = target: T1, E. coli-expressed recombinant human IL-13 (human, UniProt P35225 35-146); assay: BIAcore analysis 4, antibody captured on Protein A, IL-13 in solution
T1 construct: Untagged E. coli-expressed human IL-13; also called hIL-13; human IL13 (CA)
Protocol: (§1) Completed for both human and cynomolgus IL-13 (E. coli-expressed protein). The quoted KD values are the average from 5 different IL-13 concentration curves (done in triplicate).
(§2) The kinetics analysis was performed on a Biacore 3000 machine, using an antibody capture method. Briefly, for the chimeric 6A1 and humanised antibody constructs Protein A capture was used, whilst for the parental murine 6A1 antibody, capture was by a anti-mouse Fc antibody supplied by Biacore. Briefly, the method is as follows, the capture ligand was immobilised to a CM5 Biosensor chip by primary amine coupling in accordance with Biacore standard protocols and using the reagents supplied in Biacores' primary amine coupling kit. The method involves activation CM5 sensor surface by passing a solution of 50 mM N-hydroxy-succinimide (NHS) and 200 mM N-ethyl-N′-dimethylaminopropyl […] (EDC) over the surface. Then, the capture ligand (dissolved in acetate buffer pH5 or pH4.5) was coupled to the activated sensor surface after which any still activated esters were blocked by an injection of 1M ethanolamine hydrochloride, pH8.5.
(§3) The candidate antibody was then passed over the Protein A or anti-mouse Fc antibody surface, depending on whether it was human or mouse in origin and captured. Once a stable binding signal was seen IL13 was passed over the captured antibody surface at various defined concentrations. The subsequent binding curves were analysed with Biacore analysis software BIAeval v4.1 to determine kinetics. The experiments were carried out using Biacore HBS-EP buffer.

[2] = target: T2, E. coli-expressed recombinant cynomolgus IL-13 (cynomolgus, UniProt Q5I6E4 21-132 (Macaca thibetana entry)); assay: as above
T2 construct: also called cyno IL13 (CA); cIL-13
T2 chain: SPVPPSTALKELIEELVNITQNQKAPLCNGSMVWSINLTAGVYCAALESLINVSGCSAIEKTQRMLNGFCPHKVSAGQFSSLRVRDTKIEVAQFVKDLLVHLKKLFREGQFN
Protocol: as §1, §2, §3

[3] = target: T3, 16mer biotinylated human IL-13 peptide number 24 (human, N-terminal biotin; C-terminal amide); assay: BIAcore analysis 3, antibody over biotinylated peptide on SA chip
T3 construct: format Biotin-SGSG-PEPTIDE-amide; also called Peptide 24
T3 peptide: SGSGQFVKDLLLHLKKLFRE
Protocol: Completed for the 16mer biotinylated human IL-13 peptide number 24 (identified as the linear binding epitope for parental mAb 6A1, see section 6.7). Note that the absolute KD values obtained for binding to peptide ligands are often quite different to those seen for binding to whole protein targets.
The kinetics analysis was performed on a Biacore 3000 machine using direct binding of antibody to immobilised IL-13 peptide. Briefly, IL-13 biotinylated peptide was captured using a Biacore SA (strepavidin) Biosensor chip. The antibodies were then passed over the sensor surface at various concentrations. The subsequent binding curves were analysed with Biacore analysis software BIAeval 4.1 to determine kinetics. The experiment was carried out using Biacore HBS-EP buffer

[4] = target: T4, E. coli-expressed recombinant det-1 tagged human IL-13 (human, UniProt P35225 35-146); assay: competition ELISA: inhibition of det-1 tagged human IL-13 binding to human IL-13Rα2-Fc
T4 construct: also called Det-1 tagged human IL-13 (made in-house); not shown: det-1 tag

[5] = target: T5, E. coli-expressed recombinant human GM-CSF (human, UniProt P04141 18-144); assay: sandwich ELISA
[6] = target: T1, E. coli-expressed recombinant human …; assay: BIAcore analysis 1, antibody captured, IL-13 in solution
Protocol: (§4) Completed for both human and cynomolgus IL-13 (E. coli-expressed protein). The quoted KD values are the average from 5 different IL-13 concentration curves (done in triplicate). Note that mass transfer issues were apparent in this analysis and that a modified experimental protocol (to correct for this issue) has been completed in analysis 4 (where no mass transfer issues were present).
as §2, §3

[7] = target: T2, E. coli-expressed recombinant …; assay: as above
Protocol: as §4, §2, §3

[8] = target: T1, E. coli-expressed recombinant human …; assay: cell-based or functional assay
[9] = target: T2, E. coli-expressed recombinant …; assay: cell-based or functional assay
[10] = target: E. coli-expressed recombinant Q130 human IL-13 (human, UniProt P35225 35-146, limits assumed); assay: cell-based or functional assay
[11] = target: mammalian-expressed (CHO cell) human IL-13 (human, UniProt P35225 35-146, limits assumed); assay: cell-based or functional assay
[12] = target: T1, E. coli-expressed recombinant human …; assay: human IL-13 binding sandwich ELISA
[13] = target: T4, E. coli-expressed recombinant det-1 …; assay: competition ELISA: inhibition of det-1 tagged human IL-13 binding to human IL-13Rα1-Fc
[14] = target: T6, native (PBMC derived) human IL-13 (human, UniProt P35225 35-146, limits assumed); assay: ELISA on Th2 cell supernatant read against a standard curve
T6 construct: IL-13 in supernatant of stimulated human CD4+ Th2 cells; also called native human IL-13; Native IL-13

[15] = target: T2, E. coli-expressed recombinant …; assay: cynomolgus IL-13 binding sandwich ELISA
[16] = target: T7, E. coli-expressed recombinant human IL-4 (human, UniProt P05112 25-153); assay: human IL-4 binding sandwich ELISA
T7 sequence (looked up): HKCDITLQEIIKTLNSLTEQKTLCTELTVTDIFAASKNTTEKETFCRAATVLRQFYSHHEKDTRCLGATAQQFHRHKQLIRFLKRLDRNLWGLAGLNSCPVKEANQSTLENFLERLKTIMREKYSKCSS

[17] = target: T5, E. coli-expressed recombinant human …; assay: binding ELISA
[18] = target: T7, E. coli-expressed recombinant human IL-4; assay: binding ELISA
[19] = target: T1, E. coli-expressed recombinant human …; assay: human IL-13 binding ELISA, CHO supernatant
[20] = target: T1, E. coli-expressed recombinant human …; assay: sandwich ELISA

T1 sequence (P35225 other isoform, or with tags, fused parts or gaps): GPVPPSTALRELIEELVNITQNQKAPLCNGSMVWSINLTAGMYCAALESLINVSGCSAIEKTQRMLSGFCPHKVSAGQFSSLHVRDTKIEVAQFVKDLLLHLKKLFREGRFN
T4 sequence (P35225 other isoform, or with tags, fused parts or gaps): as above
T5 sequence (P04141 18-144 limits assumed): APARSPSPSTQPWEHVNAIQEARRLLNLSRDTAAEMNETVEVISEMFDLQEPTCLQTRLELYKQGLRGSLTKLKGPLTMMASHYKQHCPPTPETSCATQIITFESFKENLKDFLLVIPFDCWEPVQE
Chain of E. coli-expressed recombinant Q130 human IL-13 (P35225 35-146 limits assumed): as the sequence (P35225 other isoform, or with tags, fused parts or gaps) above, with R110Q counted along it
Chain of mammalian-expressed (CHO cell) human IL-13 (P35225 other isoform, or with tags, fused parts or gaps limits assumed): as the sequence (P35225 other isoform, or with tags, fused parts or gaps) above
T6 sequence (P35225 other isoform, or with tags, fused parts or gaps limits assumed): as the sequence (P35225 other isoform, or with tags, fused parts or gaps) above

Kd [1]: 0.038 nM | koff [1]: 4e-05 s⁻¹ | kon [1]: 1.05e+06 M⁻¹ s⁻¹ | Kd [2]: 0.03 nM | koff [2]: 2.65e-05 s⁻¹ | kon [2]: 885000 M⁻¹ s⁻¹ | Kd [3]: 3.58 nM | koff [3]: 0.000919 s⁻¹ | kon [3]: 257000 M⁻¹ s⁻¹ | IC50 [4]: 0.04 µg/mL | binding result [5]: no binding | Kd [6]: 0.043 nM | koff [6]: 2e-05 s⁻¹ | kon [6]: 464000 M⁻¹ s⁻¹ | Kd [7]: 0.055 nM | koff [7]: 3.27e-05 s⁻¹ | kon [7]: 592000 M⁻¹ s⁻¹ | Mean ND50 for 2 assays [8]: 0.119 µg/mL | Mean ND50 for 2 assays [9]: 0.059 µg/mL | Mean ND50 for 2 assays [10]: 0.128 µg/mL | Mean ND50 for 2 assays [11]: 0.285 µg/mL | EC50 [12]: 0.015 µg/mL | IC50 [13]: 0.034 µg/mL | Native IL-13 (ng/ml) detected in Th2 supernatant [14]: 19.6 ng/mL | EC50 [15]: 0.018 µg/mL | binding result [16]: no binding
B1: chimaeric 6A1 (antibody, human IgG1, V domains shown)
VH: EIQLQQSVAELVRPGASVRLSCTASGFYIKDTYMHWVIQRPEQGLEWIGTIDPANGNTKYVPKFQGKATITADTSSNTAYLRLSSLTSEDTAIYYCARSIYDDYHYDDYYAMDYWGQGTSVTVSS
VL: DVLMTQTPLSLPVSLGDQASISCRSSQNIVHINGNTYLEWYLQKPGQSPKLLIYKISDRFSGVPDRFSGSGSGTDFTLKISRVEAEDLGVYYCFQGSHVPWTFGGGTKLEIK
notes: Parent murine 6A1 V regions on human IgG1/k wild type C regions, expressed in CHO cells; also called 6A1c; 6A1 chimaeric antibody

Kd [1]: 0.153 nM | koff [1]: 0.000139 s⁻¹ | kon [1]: 907000 M⁻¹ s⁻¹ | Kd [2]: 0.055 nM | koff [2]: 4.25e-05 s⁻¹ | kon [2]: 772000 M⁻¹ s⁻¹ | Kd [3]: 9.35 nM | koff [3]: 0.00167 s⁻¹ | kon [3]: 179000 M⁻¹ s⁻¹ | IC50 [4]: 0.117 µg/mL | binding result [17]: no binding (tested: 30 µg/ml) | binding result [18]: no binding (tested: 30 µg/ml) | Kd [6]: 0.31 nM | koff [6]: 0.000156 s⁻¹ | kon [6]: 507000 M⁻¹ s⁻¹ | Kd [7]: 0.097 nM | koff [7]: 5.58e-05 s⁻¹ | kon [7]: 577000 M⁻¹ s⁻¹ | Mean ND50 for 2 assays [8]: 0.608 µg/mL | Mean ND50 for 2 assays [9]: 0.12 µg/mL | Mean ND50 for 2 assays [10]: 0.705 µg/mL | Mean ND50 for 2 assays [11]: 1.2 µg/mL | EC50 [12]: 0.024 µg/mL | IC50 [13]: 0.056 µg/mL | Native IL-13 (ng/ml) detected in Th2 supernatant [14]: 22.7 ng/mL | EC50 [15]: 0.028 µg/mL
B2: L2+A1 (antibody, human IgG1, kappa, V domains shown)
VH: QVQLVQSGAEVKKPGSSVKVSCKASGFYIKDTYMHWVRQAPGQGLEWMGTIDPANGNTKYVPKFQGRVTITADESTSTAYMELSSLRSEDTAVYYCARSIYDDYHYDDYYAMDYWGQGTLVTVSS
VL: DIVMTQSPLSLPVTPGEPASISCRSSQNIVHINGNTYLEWYLQKPGQSPRLLIYKISDRFSGVPDRFSGSGSGTDFTLKISRVEADDVGVYYCFQGSHVPWTFGQGTKLEIKR
notes: Humanised 6A1, VH construct A1 and VL construct L2; also called A1L2

binding result [19]: binds
B3: A2L1 (antibody, human IgG1, kappa, V domains shown)
VH: B2 VH with R38I
VL: B2 VL with V90I
notes: Humanised 6A1 combination, tested as CHO cell supernatant

binding result [19]: binds
B4: A3L1 (antibody, human IgG1, kappa, V domains shown)
VH: B2 VH with R38I, E74T
VL: B2 VL with V90I
notes: as for B3

binding result [19]: binds
B5: A2L2 (antibody, human IgG1, kappa, V domains shown)
VH: B2 VH with R38I
VL: B2 VL
notes: as for B3

binding result [20]: binds
B6: A4L2 (antibody, human IgG1, kappa, V domains shown)
VH: B2 VH with K19R, R38I, E74T, E82R
VL: B2 VL
notes: as for B3

binding result [20]: binds
B7: A4L1 (antibody, human IgG1, kappa, V domains shown)
VH: B2 VH with K19R, R38I, E74T, E82R
VL: B2 VL with V90I
notes: as for B3

binding result [19]: binds
B8: A3L2 (antibody, human IgG1, kappa, V domains shown)
VH: B2 VH with R38I, E74T
VL: B2 VL
notes: as for B3
